How the values were obtained:
[1] = biological target: T1, murine IL-10 receptor IgG immunoadhesin (murine, UniProt Q61727 17-241); experiment: bead depletion assay, FIG. 3 top
T1 construct: Used as specificity control; also called murine IL-10 R immunoadhesin; murine IL-10 receptor immunoadhesin; not shown: IgG backbone
T1 sequence (looked up): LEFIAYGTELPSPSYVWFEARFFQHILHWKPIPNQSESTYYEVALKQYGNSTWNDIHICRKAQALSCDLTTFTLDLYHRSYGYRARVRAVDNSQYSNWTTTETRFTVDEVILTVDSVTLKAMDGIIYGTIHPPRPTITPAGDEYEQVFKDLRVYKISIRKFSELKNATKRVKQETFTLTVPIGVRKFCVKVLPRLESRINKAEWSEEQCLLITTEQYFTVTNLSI

[2] = biological target: T2, human IL-10 receptor immunoadhesin (isotype not stated, control of FIG. 3 bottom) (human, UniProt Q13651 22-235); experiment: ELISA inhibition, FIG. 3 bottom
T2 construct: extracellular domain; not shown: human IgG1 or IgA1 hinge-CH2-CH3
T2 sequence (looked up): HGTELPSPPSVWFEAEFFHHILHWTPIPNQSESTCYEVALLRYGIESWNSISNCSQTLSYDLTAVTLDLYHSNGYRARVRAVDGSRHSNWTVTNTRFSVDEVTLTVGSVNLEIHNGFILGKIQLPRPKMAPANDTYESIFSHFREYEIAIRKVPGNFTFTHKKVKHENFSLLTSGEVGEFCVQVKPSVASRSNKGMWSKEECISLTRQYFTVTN

[3] = biological target: T3, human IL-10 receptor IgG immunoadhesin (human, UniProt Q13651 22-235); experiment: bead depletion assay, unbound hIL-10 by ELISA, FIG. 1 top
T3 construct: extracellular domain; Tested as concentrated supernatant of cells infected with recombinant vaccinia; also called human IL-10R adhesin; human IL-10 R adhesin; not shown: human IgG1 heavy chain hinge, CH2 and CH3 domains, amplified from ARH-77 cDNA; joined through a SalI site; residue limit
T3 sequence (looked up): T2 sequence (looked up)

[4] = biological target: T4, murine IL-4 receptor IgG immunoadhesin (murine, UniProt P16382 26-233); experiment: bead depletion assay (immunoadhesin on beads, unbound hIL-10 in filtrate by ELISA), FIG. 1 top
T4 construct: Tested as concentrated supernatant of vaccinia-infected cells; also called murine IL-4 receptor immunoadhesin; mIL-4R IgG immunoadhesin; not shown: IgG backbone
T4 sequence (looked up): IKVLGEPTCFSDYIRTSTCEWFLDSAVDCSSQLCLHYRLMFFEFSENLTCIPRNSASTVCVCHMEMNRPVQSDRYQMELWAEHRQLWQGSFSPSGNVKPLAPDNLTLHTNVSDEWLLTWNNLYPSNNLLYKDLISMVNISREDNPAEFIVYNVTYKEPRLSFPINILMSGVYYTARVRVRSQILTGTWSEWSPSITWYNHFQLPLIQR

[5] = biological target: T1, murine IL-10 receptor IgG immunoadhesin; experiment: as above

B1: murine IL-4 (ligand, UniProt P07750 21-140, looked up)
chain: HIHGCDKNHLREIIGILNEVTGEGTPCTEMDVPNVLTATKNTTESELVCRASKVLRIFYLKHGKTPCLKKNSSVLMELQRLFRAFRCLDSSISCTMNESKSTSLKDFLESLKSIMQMDYS
notes: also called mIL-4
binding result [1]: no binding (tested: 250 µl of 200 pg/100 µl of mIL-4) | binding result [2]: no binding

B2: human IL-10 (ligand, UniProt P22301 19-178, looked up)
chain: SPGQGTQSENSCTHFPGNLPNMLRDLRDAFSRVKTFFQMKDQLDNLLLKESLLEDFKGYLGCQALSEMIQFYLEEVMPQAENQDPDIKAHVNSLGENLKTLRLRLRRCHRFLPCENKSKAVEQVKNAFNKLQEKGIYKAMSEFDIFINYIEAYMTMKIRN
notes: also called hIL-10
binding result [3]: binds | binding result [4]: no binding (tested: 250 µl of 200 pg/100 µl of hIL-10) | binding result [5]: no binding (tested: 250 µl of 200 pg/100 µl of hIL-10)

Reference: patent US20030206886A1 (UNIVERSITY OF MEDICINE AND DENTISTRY OF NEW JERSEY, published 2003)
